This is an account of results in ChEMBL document CHEMBL1143118, “6-Acetyl-7,7-dimethyl-5,6,7,8-tetrahydropterin is an activator of nitric oxide synthases” (Bioorg Med Chem Lett, 2008).

Substrate in series [1]: C[C@H](O)[C@H](O)[C@H]1CNc2nc(N)[nH]c(=O)c2N1
Nature of the series: (§1) Activity of tetrahydrobiopterin free nNOS.

Substrate in series [2]: CC(=O)C1Nc2c(nc(N)[nH]c2=O)NC1(C)C
Described as §1.

B1: Nitric oxide synthase 1 (Homo sapiens), P29475 (protein)
chain: MEDHMFGVQQIQPNVISVRLFKRKVGGLGFLVKERVSKPPVIISDLIRGGAAEQSGLIQAGDIILAVNGRPLVDLSYDSALEVLRGIASETHVVLILRGPEGFTTHLETTFTGDGTPKTIRVTQPLGPPTKAVDLSHQPPAGKEQPLAVDGASGPGNGPQHAYDDGQEAGSLPHANGLAPRPPGQDPAKKATRVSLQGRGENNELLKEIEPVLSLLTSGSRGVKGGAPAKAEMKDMGIQVDRDLDGKSHKPLPLGVENDRVFNDLWGKGNVPVVLNNPYSEKEQPPTSGKQSPTKNGSPSKCPRFLKVKNWETEVVLTDTLHLKSTLETGCTEYICMGSIMHPSQHARRPEDVRTKGQLFPLAKEFIDQYYSSIKRFGSKAHMERLEEVNKEIDTTSTYQLKDTELIYGAKHAWRNASRCVGRIQWSKLQVFDARDCTTAHGMFNYICNHVKYATNKGNLRSAITIFPQRTDGKHDFRVWNSQLIRYAGYKQPDGSTLGDPANVQFTEICIQQGWKPPRGRFDVLPLLLQANGNDPELFQIPPELVLEVPIRHPKFEWFKDLGLKWYGLPAVSNMLLEIGGLEFSACPFSGWYMGTEIGVRDYCDNSRYNILEEVAKKMNLDMRKTSSLWKDQALVEINIAVLYSFQSDKVTIVDHHSATESFIKHMENEYRCRGGCPADWVWIVPPMSGSITPVFHQEMLNYRLTPSFEYQPDPWNTHVWKGTNGTPTKRRAIGFKKLAEAVKFSAKLMGQAMAKRVKATILYATETGKSQAYAKTLCEIFKHAFDAKVMSMEEYDIVHLEHETLVLVVTSTFGNGDPPENGEKFGCALMEMRHPNSVQEERKSYKVRFNSVSSYSDSQKSSGDGPDLRDNFESAGPLANVRFSVFGLGSRAYPHFCAFGHAVDTLLEELGGERILKMREGDELCGQEEAFRTWAKKVFKAACDVFCVGDDVNIEKANNSLISNDRSWKRNKFRLTFVAEAPELTQGLSNVHKKRVSAARLLSRQNLQSPKSSRSTIFVRLHTNGSQELQYQPGDHLGVFPGNHEDLVNALIERLEDAPPVNQMVKVELLEERNTALGVISNWTDELRLPPCTIFQAFKYYLDITTPPTPLQLQQFASLATSEKEKQRLLVLSKGLQEYEEWKWGKNPTIVEVLEEFPSIQMPATLLLTQLSLLQPRYYSISSSPDMYPDEVHLTVAIVSYRTRDGEGPIHHGVCSSWLNRIQADELVPCFVRGAPSFHLPRNPQVPCILVGPGTGIAPFRSFWQQRQFDIQHKGMNPCPMVLVFGCRQSKIDHIYREETLQAKNKGVFRELYTAYSREPDKPKKYVQDILQEQLAESVYRALKEQGGHIYVCGDVTMAADVLKAIQRIMTQQGKLSAEDAGVFISRMRDDNRYHEDIFGVTLRTYEVTNRLRSESIAFIEESKKDTDEVFSS
For B1, the kcat in series [1] amounted to 0.136 s⁻¹; in series [2] it was 0.0878 s⁻¹.
